For the series, the system named is Escherichia coli TOP10. As to the kind of experiment: shrunken log2 fold change of peptide-encoding DNA abundance (4.5 h post-induction vs induction); higher = less antimicrobial activity (less host growth inhibition). Particulars: time post-induction: 4.5 h; library: site-saturation at positions 5, 18, 19, 20.
Consider RRIRSRPPRLPRPRPRPMNIPRP, for which the “shrunken log2 fold change” value was -0.196.
RRIRLRPPRLPRPRPRPMKYPRP: the “shrunken log2 fold change” value was -0.236.
RRIRDRPPRLPRPRPRPSWKPRP: the “shrunken log2 fold change” value was -0.015.
As to RRIRPRPPRLPRPRPRPSVWPRP, the “shrunken log2 fold change” value is -0.0905.
The figure for RRIRMRPPRLPRPRPRPRASPRP is 1.08; for RRIRNRPPRLPRPRPRPGHWPRP it is 0.291; for RRIRRRPPRLPRPRPRPEERPRP it is 0.34.
To RRIRERPPRLPRPRPRPTPWPRP belongs 0.108; to RRIRWRPPRLPRPRPRPSFNPRP, -0.365; to RRIRWRPPRLPRPRPRPCCEPRP, -0.00563.
In the case of RRIRKRPPRLPRPRPRPGQDPRP, the “shrunken log2 fold change” value is 0.37.
The figure for RRIRCRPPRLPRPRPRPCERPRP is -0.0644.
Consider RRIRSRPPRLPRPRPRPVWHPRP, for which the “shrunken log2 fold change” value came out at 0.182.
To RRIRFRPPRLPRPRPRPCWNPRP belongs 0.151; to RRIRFRPPRLPRPRPRPQNYPRP, -0.502; to RRIRVRPPRLPRPRPRPMNHPRP, -0.194.
Regarding RRIRFRPPRLPRPRPRPEWSPRP, the “shrunken log2 fold change” value came out at 0.219.
The figure for RRIRVRPPRLPRPRPRPEEQPRP is 0.0234; for RRIRSRPPRLPRPRPRPIKFPRP it is -0.0229.
With RRIRCRPPRLPRPRPRPAYQPRP, the “shrunken log2 fold change” value was -0.0687.
For RRIRPRPPRLPRPRPRPMPIPRP, the “shrunken log2 fold change” value came out at 0.0579.
The figure for RRIRFRPPRLPRPRPRPYIAPRP is -1.11.
The figure for RRIRIRPPRLPRPRPRPREEPRP is 0.0171; for RRIRSRPPRLPRPRPRPFWGPRP it is 0.176.
In the case of RRIRTRPPRLPRPRPRPMGKPRP, the “shrunken log2 fold change” value was 0.0179.
Take RRIRFRPPRLPRPRPRPEWQPRP: the “shrunken log2 fold change” value is -0.00149.
Regarding RRIRHRPPRLPRPRPRPQRKPRP, the “shrunken log2 fold change” value was -0.191.
The figure for RRIRCRPPRLPRPRPRPWYFPRP is -0.264.
To RRIRVRPPRLPRPRPRPEVCPRP belongs 0.0183; to RRIRWRPPRLPRPRPRPSKSPRP, -0.0449; to RRIRMRPPRLPRPRPRPQCRPRP, 0.253.
To RRIRQRPPRLPRPRPRPHFYPRP belongs -0.229; to RRIRTRPPRLPRPRPRPNINPRP, -0.812.
For RRIRHRPPRLPRPRPRPMHYPRP, the “shrunken log2 fold change” value was -0.289.
The figure for RRIRTRPPRLPRPRPRPKIHPRP is -0.427; for RRIRPRPPRLPRPRPRPQYAPRP it is -0.103.
To RRIRARPPRLPRPRPRPLKEPRP belongs 0.218; to RRIRIRPPRLPRPRPRPRQLPRP, -0.27; to RRIRTRPPRLPRPRPRPVSEPRP, 0.135.
The figure for RRIRNRPPRLPRPRPRPQFPPRP is -0.148; for RRIRRRPPRLPRPRPRPGNYPRP it is -0.0441; for RRIRKRPPRLPRPRPRPKKDPRP it is 0.337.
Take RRIRKRPPRLPRPRPRPCPRPRP: the “shrunken log2 fold change” value came out at 0.163.
To RRIRRRPPRLPRPRPRPNESPRP belongs 0.137; to RRIRIRPPRLPRPRPRPQYVPRP, -0.0421.
On to RRIRNRPPRLPRPRPRPEKPPRP, for which the “shrunken log2 fold change” value is -0.233.
To RRIRLRPPRLPRPRPRPLPAPRP belongs 0.585; to RRIRIRPPRLPRPRPRPAFYPRP, -0.387.
To RRIRLRPPRLPRPRPRPGGQPRP belongs 0.319; to RRIRVRPPRLPRPRPRPHTFPRP, -0.105; to RRIRGRPPRLPRPRPRPICHPRP, 0.378.
For the sequence RRIRERPPRLPRPRPRPPIHPRP, the “shrunken log2 fold change” value was -0.502.
For RRIRERPPRLPRPRPRPRGKPRP, the “shrunken log2 fold change” value came out at 0.0142.
For the sequence RRIRWRPPRLPRPRPRPACMPRP, the “shrunken log2 fold change” value was 0.164.
The figure for RRIRTRPPRLPRPRPRPDRVPRP is -0.0605.
The figure for RRIRIRPPRLPRPRPRPEGDPRP is 0.574.
To RRIRERPPRLPRPRPRPFIRPRP belongs -0.854; to RRIRWRPPRLPRPRPRPPNWPRP, 0.603.
Turning to RRIRGRPPRLPRPRPRPYEGPRP, the “shrunken log2 fold change” value is -0.199.
The figure for RRIRWRPPRLPRPRPRPNGYPRP is 0.186.
To RRIRWRPPRLPRPRPRPDTEPRP belongs 0.14.
RRIRDRPPRLPRPRPRPFTDPRP: the “shrunken log2 fold change” value stood at 0.00624.
To RRIRLRPPRLPRPRPRPLEYPRP belongs -0.116.

Values taken from the supplement of paper PMC9112550, “Optimization of the antimicrobial peptide Bac7 by deep mutational scanning” (BMC Biology, 2022).
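Note: peptides expressed intracellularly from a pBAD plasmid library in pooled LB shake-flask culture, induced with 0.3% L-arabinose, DNA abundance read by NGS, three biological replicates, DESeq2 with apeglm shrinkage.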
